Laboratory results as given in patent publication US20260184748A1, “COMPOSITIONS COMPRISING OCTADECANEUROPEPTIDES (ODN) AND SYNTHETIC DERIVATIVES THEREOF AND METHODS OF USE FOR MODULATION OF FOOD INTAKE, OBESITY, BODY WEIGHT, NAUSEA, AND EMESIS” (The Trustees of the University of Pennsylvania, priority 2022, published 2026).
Where no end group is shown, it is not given here.

Legend:
Assay in all cases: cell-based or functional assay
[1] = molecular target: PPYR1 (UniProt P50391)
[2] = molecular target: PROKR2 (UniProt Q8NFJ6)
Sequence of PROKR2 (Q8NFJ6 whole entry): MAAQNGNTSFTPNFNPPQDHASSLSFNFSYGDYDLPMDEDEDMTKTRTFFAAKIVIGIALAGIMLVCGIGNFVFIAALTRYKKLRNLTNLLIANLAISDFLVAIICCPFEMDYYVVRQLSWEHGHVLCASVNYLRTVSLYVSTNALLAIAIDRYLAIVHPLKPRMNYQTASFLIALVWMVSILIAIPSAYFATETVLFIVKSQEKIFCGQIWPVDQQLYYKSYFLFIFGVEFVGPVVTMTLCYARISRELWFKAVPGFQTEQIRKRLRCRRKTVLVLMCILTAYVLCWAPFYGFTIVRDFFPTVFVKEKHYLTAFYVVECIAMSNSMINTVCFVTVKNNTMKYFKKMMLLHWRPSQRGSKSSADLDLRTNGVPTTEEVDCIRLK

[3] = molecular target: PROKR1 (UniProt Q8TCW9)
Sequence of PROKR1 (Q8TCW9 whole entry): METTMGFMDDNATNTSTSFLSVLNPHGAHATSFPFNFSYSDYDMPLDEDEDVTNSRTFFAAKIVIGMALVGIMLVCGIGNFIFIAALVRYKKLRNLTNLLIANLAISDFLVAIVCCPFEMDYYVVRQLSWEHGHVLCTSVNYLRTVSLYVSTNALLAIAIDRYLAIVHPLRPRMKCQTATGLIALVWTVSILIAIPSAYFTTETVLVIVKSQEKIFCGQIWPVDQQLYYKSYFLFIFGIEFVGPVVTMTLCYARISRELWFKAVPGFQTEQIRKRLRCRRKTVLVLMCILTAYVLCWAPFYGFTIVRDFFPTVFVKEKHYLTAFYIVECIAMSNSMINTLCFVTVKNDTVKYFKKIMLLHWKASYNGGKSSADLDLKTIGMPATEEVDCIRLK

[4] = molecular target: NMU1R (UniProt Q9HB89)
Sequence of NMU1R (Q9HB89 whole entry): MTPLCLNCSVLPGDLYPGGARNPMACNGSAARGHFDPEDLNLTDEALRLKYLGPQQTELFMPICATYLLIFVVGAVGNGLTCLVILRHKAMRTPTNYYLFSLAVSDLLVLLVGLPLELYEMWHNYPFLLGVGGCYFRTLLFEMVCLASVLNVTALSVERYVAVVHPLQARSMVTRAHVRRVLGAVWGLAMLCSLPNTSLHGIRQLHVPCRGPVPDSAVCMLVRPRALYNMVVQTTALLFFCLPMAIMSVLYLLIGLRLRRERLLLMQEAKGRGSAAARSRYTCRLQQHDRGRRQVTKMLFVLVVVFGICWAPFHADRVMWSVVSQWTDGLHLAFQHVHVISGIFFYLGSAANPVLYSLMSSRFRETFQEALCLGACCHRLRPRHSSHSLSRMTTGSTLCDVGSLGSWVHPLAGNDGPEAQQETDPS

[5] = molecular target: T1, CRHR2 (UniProt Q13324)
T1 sequence (looked up): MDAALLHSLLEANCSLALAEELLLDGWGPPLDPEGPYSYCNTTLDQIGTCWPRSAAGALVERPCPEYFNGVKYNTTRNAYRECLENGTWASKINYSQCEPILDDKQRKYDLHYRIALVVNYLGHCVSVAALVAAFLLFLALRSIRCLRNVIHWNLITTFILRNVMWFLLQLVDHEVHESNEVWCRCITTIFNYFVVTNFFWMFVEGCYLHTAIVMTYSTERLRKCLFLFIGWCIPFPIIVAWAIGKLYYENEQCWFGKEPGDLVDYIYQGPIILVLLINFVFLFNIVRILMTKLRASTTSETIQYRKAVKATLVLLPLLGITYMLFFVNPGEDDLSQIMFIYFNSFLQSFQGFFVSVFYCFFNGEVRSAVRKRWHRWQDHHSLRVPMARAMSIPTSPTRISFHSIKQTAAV

[6] = molecular target: CRHR1 (UniProt P34998)
Sequence of CRHR1 (P34998 24-415 limits assumed): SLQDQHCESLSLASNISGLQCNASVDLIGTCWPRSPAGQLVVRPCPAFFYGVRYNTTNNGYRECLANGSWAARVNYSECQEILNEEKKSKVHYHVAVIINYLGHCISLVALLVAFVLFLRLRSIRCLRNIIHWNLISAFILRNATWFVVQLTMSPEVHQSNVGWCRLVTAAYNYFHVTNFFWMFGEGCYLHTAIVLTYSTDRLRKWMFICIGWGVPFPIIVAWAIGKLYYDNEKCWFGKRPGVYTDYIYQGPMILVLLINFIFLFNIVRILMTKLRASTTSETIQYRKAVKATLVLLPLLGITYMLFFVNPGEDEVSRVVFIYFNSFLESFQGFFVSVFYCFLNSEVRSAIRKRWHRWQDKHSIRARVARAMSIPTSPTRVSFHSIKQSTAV

[7] = molecular target: T2, CCR10 (UniProt P46092)
T2 sequence (looked up): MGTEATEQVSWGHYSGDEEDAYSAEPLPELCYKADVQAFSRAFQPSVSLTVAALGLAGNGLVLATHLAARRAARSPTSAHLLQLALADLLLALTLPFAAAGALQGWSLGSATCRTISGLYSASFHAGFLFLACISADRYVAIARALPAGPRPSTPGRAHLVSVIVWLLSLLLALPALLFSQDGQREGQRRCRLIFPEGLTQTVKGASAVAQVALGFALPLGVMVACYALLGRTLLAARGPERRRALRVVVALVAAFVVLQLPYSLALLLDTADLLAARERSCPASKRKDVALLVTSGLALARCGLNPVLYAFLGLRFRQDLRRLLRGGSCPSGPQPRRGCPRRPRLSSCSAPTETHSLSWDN

[8] = molecular target: DRD2L, P14416
[9] = molecular target: F2R, P25116
Sequence of F2R, P25116 (P25116 22-425): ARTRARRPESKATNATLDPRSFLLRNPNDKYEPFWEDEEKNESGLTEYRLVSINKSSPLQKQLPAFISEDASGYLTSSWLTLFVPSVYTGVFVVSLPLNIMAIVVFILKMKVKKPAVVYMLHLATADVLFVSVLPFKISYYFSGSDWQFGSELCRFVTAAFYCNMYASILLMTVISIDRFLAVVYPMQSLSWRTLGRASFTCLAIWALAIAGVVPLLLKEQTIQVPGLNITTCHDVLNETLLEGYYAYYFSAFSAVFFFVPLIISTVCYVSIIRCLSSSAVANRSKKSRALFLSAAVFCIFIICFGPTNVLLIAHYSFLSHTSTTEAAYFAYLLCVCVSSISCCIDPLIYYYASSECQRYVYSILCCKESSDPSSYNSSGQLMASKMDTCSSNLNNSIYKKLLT

[10] = molecular target: CXCR5 (UniProt P32302)
Sequence of CXCR5 (P32302 whole entry): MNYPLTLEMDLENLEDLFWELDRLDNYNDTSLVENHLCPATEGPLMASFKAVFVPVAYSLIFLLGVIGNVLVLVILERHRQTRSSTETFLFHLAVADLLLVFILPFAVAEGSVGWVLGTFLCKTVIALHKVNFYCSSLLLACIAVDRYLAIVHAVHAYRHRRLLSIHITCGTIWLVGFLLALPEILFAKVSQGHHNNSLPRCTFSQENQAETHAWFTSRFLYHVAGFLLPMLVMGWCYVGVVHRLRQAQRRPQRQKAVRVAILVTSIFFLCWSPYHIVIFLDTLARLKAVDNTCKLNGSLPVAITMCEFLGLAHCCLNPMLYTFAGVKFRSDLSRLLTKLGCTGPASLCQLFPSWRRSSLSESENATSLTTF

[11] = molecular target: CXCR3 (UniProt P49682)
Sequence of CXCR3 (P49682 whole entry): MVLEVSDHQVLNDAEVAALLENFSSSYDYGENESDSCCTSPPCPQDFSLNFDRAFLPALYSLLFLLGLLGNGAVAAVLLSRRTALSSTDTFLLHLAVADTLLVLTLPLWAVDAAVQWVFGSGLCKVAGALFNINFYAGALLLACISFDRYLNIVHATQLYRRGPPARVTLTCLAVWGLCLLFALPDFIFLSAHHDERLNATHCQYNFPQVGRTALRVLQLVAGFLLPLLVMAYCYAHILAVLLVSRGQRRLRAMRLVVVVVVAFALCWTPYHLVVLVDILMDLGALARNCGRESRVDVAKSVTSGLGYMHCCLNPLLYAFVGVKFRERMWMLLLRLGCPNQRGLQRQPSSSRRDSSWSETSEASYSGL

[12] = molecular target: CXCR6 (UniProt O00574)
Sequence of CXCR6 (O00574 whole entry): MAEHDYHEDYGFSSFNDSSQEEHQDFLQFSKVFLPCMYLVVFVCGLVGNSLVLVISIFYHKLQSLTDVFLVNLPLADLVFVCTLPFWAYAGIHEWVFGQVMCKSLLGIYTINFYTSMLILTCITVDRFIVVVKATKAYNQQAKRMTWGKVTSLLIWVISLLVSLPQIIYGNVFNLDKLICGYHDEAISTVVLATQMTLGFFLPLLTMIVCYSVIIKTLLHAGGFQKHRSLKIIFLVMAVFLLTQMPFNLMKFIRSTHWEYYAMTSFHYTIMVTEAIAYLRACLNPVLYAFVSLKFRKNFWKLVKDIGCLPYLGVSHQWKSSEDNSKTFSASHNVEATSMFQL

[13] = molecular target: T3, UTR2 (UniProt Q9UKP6)
T3 sequence (looked up): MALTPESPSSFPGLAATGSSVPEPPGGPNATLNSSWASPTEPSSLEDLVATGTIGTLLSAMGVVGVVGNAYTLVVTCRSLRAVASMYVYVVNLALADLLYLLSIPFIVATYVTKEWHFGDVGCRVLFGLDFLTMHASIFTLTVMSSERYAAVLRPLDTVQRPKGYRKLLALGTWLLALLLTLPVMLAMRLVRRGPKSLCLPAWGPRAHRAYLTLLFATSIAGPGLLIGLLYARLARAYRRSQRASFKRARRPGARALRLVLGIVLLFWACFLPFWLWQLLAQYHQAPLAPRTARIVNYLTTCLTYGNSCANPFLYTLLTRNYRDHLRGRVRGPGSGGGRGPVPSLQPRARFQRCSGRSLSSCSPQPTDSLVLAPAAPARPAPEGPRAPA

[14] = molecular target: T4, NPBWR1 (UniProt P48145)
T4 sequence (looked up): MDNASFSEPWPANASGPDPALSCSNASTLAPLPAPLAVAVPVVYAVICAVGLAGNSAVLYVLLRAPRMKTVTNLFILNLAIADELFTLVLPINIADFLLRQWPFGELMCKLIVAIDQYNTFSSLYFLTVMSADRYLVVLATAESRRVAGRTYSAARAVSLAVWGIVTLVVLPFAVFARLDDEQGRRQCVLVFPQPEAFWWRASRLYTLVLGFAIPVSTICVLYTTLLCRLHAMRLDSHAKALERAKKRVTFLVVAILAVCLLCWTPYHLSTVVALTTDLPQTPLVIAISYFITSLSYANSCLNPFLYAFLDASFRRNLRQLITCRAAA

[15] = molecular target: NPBWR2 (UniProt P48146)
Sequence of NPBWR2 (P48146 whole entry): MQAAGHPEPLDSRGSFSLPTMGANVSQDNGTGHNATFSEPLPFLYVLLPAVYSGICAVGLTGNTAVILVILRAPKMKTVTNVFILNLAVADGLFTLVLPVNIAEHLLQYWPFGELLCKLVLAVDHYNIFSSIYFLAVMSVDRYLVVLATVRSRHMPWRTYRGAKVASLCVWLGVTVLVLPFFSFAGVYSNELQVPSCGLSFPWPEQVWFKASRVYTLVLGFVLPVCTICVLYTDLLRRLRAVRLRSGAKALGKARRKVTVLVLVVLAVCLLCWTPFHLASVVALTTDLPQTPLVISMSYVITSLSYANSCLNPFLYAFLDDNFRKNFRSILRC

[16] = molecular target: CCR8 (UniProt P51685)
[17] = molecular target: T5, CCR4 (UniProt P51679)
T5 sequence (looked up): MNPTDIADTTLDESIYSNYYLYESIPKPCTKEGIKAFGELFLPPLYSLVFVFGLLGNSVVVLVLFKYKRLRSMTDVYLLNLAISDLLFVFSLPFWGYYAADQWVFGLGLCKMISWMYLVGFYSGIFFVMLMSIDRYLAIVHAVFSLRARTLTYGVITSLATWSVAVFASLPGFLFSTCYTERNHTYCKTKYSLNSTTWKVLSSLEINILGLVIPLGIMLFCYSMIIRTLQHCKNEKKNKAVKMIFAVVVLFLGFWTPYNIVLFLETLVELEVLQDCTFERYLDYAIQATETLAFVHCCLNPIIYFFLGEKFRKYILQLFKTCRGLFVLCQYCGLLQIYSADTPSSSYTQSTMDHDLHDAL

[18] = molecular target: GPR103 (UniProt Q96P65)
Sequence of GPR103 (Q96P65 whole entry): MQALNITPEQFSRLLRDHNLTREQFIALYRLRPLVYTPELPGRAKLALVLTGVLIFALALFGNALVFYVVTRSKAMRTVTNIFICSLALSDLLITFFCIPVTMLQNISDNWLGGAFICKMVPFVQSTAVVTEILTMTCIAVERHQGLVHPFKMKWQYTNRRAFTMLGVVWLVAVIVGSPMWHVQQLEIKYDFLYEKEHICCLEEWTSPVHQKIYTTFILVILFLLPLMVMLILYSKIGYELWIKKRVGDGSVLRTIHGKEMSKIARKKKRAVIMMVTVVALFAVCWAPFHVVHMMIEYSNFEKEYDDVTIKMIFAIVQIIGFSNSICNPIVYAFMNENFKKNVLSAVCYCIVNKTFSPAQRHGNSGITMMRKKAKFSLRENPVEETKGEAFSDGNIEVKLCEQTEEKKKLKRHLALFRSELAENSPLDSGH

[19] = molecular target: T6, NPSR1B (UniProt Q6W5P4)
T6 sequence (looked up): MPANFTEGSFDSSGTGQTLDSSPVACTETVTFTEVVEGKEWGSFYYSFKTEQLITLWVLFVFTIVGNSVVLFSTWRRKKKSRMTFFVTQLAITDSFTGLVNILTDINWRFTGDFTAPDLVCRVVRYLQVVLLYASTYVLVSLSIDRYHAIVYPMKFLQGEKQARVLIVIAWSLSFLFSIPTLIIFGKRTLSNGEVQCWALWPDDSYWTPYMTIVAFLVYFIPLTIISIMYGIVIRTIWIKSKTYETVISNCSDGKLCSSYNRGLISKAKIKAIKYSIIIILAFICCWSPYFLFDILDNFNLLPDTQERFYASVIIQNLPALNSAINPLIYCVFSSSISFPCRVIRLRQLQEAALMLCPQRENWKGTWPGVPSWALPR

[20] = molecular target: MCHR2 (UniProt Q969V1)
Sequence of MCHR2 (Q969V1 whole entry): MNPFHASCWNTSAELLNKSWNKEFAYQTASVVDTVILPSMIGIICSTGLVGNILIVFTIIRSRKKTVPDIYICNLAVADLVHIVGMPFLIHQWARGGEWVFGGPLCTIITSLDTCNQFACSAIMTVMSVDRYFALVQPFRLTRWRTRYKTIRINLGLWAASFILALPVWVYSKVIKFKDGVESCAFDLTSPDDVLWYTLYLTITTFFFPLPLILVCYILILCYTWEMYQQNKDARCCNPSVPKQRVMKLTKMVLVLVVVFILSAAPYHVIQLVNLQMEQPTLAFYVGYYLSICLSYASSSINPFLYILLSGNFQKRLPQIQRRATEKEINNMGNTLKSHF

[21] = molecular target: MCHR1 (UniProt Q99705)
Sequence of MCHR1 (Q99705 whole entry): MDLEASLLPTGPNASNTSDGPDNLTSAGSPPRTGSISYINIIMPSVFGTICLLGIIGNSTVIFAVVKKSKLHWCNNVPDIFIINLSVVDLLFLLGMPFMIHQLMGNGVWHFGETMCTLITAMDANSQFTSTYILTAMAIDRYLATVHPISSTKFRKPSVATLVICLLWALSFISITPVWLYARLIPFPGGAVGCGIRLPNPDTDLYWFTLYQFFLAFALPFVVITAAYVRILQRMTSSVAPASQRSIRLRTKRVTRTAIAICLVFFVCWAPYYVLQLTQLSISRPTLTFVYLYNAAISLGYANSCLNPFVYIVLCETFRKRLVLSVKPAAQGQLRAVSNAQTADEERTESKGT

Sequence of PPYR1 (P50391 whole entry): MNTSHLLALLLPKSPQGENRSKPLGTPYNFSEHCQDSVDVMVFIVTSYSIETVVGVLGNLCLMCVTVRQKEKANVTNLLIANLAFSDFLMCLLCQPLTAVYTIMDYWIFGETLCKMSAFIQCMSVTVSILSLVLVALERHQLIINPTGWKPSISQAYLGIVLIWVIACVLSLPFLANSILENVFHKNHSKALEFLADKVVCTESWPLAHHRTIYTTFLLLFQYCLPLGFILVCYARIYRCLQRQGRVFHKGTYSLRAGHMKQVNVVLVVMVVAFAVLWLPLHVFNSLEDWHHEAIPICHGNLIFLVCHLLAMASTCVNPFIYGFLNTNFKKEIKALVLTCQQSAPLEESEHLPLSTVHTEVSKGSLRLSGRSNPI

APLEPVYPGDNATPEQMAQYAADLRRYINMLTRPRY (peptide, UniProt P01298 30-65, looked up) [Pancreatic Polypeptide]
EC50 (RC50), arrestin, agonist mode [1]: 1.5 nM | EC80, arrestin, agonist mode [1]: 5 nM

B1: EG VEGF (ligand, UniProt P58294 20-105, looked up)
chain: AVITGACERDVQCGAGTCCAISLWLRGLRMCTPLGREGEECHPGSHKVPFFRKRKHHTCPCLPNLLCSRFPDGRYRCSMDLKNINF
EC50 (RC50), arrestin, agonist mode [2]: 10.6 nM | EC80, arrestin, agonist mode [2]: 30 nM | EC50 (RC50), arrestin, agonist mode [3]: 17.7 nM | EC80, arrestin, agonist mode [3]: 53.7 nM

FRVDEEFQSPFASQSRGYFLFRPRN (peptide, UniProt P48645 142-166, looked up) [Neuromedin U-25]
EC50 (RC50), arrestin, agonist mode [4]: 1.43 nM | EC80, arrestin, agonist mode [4]: 3.68 nM

QGPPISIDLSLELLRKMIEIEKQEKEKQQAANNRLLLDTI (peptide, UniProt P01144 1-40, looked up) [Sauvagine]
EC50 (RC50), arrestin, agonist mode [5]: 5.99 nM | EC80, arrestin, agonist mode [5]: 24.5 nM | EC50 (RC50), arrestin, agonist mode [6]: 3.28 nM | EC80, arrestin, agonist mode [6]: 10.3 nM

B2: CCL27 (ligand, UniProt Q9Y4X3 25-112, looked up)
chain: FLLPPSTACCTQLYRKPLSDKLLRKVIQVELQEADGDCHLQAFVLHLAQRSICIHPQNPSLSQWFEHQERKLHGTLPKLNFGMLRKMG
EC50 (RC50), arrestin, agonist mode [7]: 26.3 nM | EC80, arrestin, agonist mode [7]: 109 nM

QATVGDVNTDRPGLLDLK (also: synthesised on Rink amide resin, C-terminal amide not given here outright) [octadecaneuropeptide (ODN)]
% Activity, arrestin, antagonist mode, 2.5 uM [8]: -16.8% | % Activity, arrestin, antagonist mode, 2.5 uM [9]: -17%

B3: CXCL13 (ligand, UniProt O43927 23-109, looked up)
chain: VLEVYYTSLRCRCVQESSVFIPRRFIDRIQILPRGNGCPRKEIIVWKKNKSIVCVDPQAEWIQRMMEVLRKRSSSTLPVPVFKRKIP
EC50 (RC50), arrestin, agonist mode [10]: 21 nM | EC80, arrestin, agonist mode [10]: 61.2 nM

B4: CXCL11 (ligand, UniProt O14625 22-94, looked up)
chain: FPMFKRGRCLCIGPGVKAVKVADIEKASIMYPSNNCDKIEVIITLKENKGQRCLNPKSKQARLIIKKVERKNF
EC50 (RC50), arrestin, agonist mode [11]: 12 nM | EC80, arrestin, agonist mode [11]: 17.9 nM

B5: CXCL16 (ligand, UniProt Q9H2A7 30-118, looked up)
chain: NEGSVTGSCYCGKRISSDSPPSVQFMNRLRKHLRAYHRCLYYTRFQLLSWSVCGGNKDPWVQELMSCLDLKECGHAYSGIVAHQKHLLP
EC50 (RC50), arrestin, agonist mode [12]: 6.81 nM | EC80, arrestin, agonist mode [12]: 21 nM

ETPDCFWKYCV (peptide, UniProt O95399 114-124, looked up) [Urotensin II]
EC50 (RC50), arrestin, agonist mode [13]: 1.19 nM | EC80, arrestin, agonist mode [13]: 4.22 nM

WYKHVASPRYHTVGRAAGLLMGL (peptide, UniProt Q8N729 33-55, looked up) [Neuropeptide W23]
EC50 (RC50), arrestin, agonist mode [14]: 2.17 nM | EC80, arrestin, agonist mode [14]: 8.01 nM | EC50 (RC50), arrestin, agonist mode [15]: 3.62 nM | EC80, arrestin, agonist mode [15]: 12.2 nM

B6: CCL1 (ligand, UniProt P22362 24-96, looked up)
chain: KSMQVPFSRCCFSFAEQEIPLRAILCYRNTSSICSNEGLIFKLKRGKEACALDTVGWVQRHRKMLRHCPSKRK
EC50 (RC50), arrestin, agonist mode [16]: 45.8 nM | EC80, arrestin, agonist mode [16]: 159 nM

B7: CCL22 (ligand, UniProt O00626 25-93, looked up)
chain: GPYGANMEDSVCCRDYVRYRLPLRVVKHFYWTSDSCPRPGVVLLTFRDKEICADPRVPWVKMILNKLSQ
EC50 (RC50), arrestin, agonist mode [17]: 3.44 nM | EC80, arrestin, agonist mode [17]: 19.7 nM

TFLLR-NH2 [TFLLR-NH2]
EC50 (RC50), arrestin, agonist mode [9]: 14500 nM | EC80, arrestin, agonist mode [9]: 28700 nM

TSGPLGNLAEELNGYSRKKGGFSFRF (peptide, UniProt P83859 108-133, looked up) [QRFP-26]
EC50 (RC50), arrestin, agonist mode [18]: 10 nM | EC80, arrestin, agonist mode [18]: 27.1 nM

SFRNGVGTGMKKTSFQRAKS (peptide, UniProt P0C0P6 70-89, looked up) [Neuropeptide S]
EC50 (RC50), arrestin, agonist mode [19]: 23.6 nM | EC80, arrestin, agonist mode [19]: 45.4 nM

DFDMLRCMLGRVYRPCWQV (peptide, UniProt P20382 147-165, looked up) [MCH]
EC50 (RC50), arrestin, agonist mode [20]: 5.51 nM | EC80, arrestin, agonist mode [20]: 20.2 nM | EC50 (RC50), arrestin, agonist mode [21]: 167 nM | EC80, arrestin, agonist mode [21]: 444 nM
